Test results published in publication PMC8215210.

target: T1, His-OpaR (Vibrio parahaemolyticus RIMD2210633) (UniProt Q79YV4); experiment: DNase I footprinting; details: Buffer, salt, pH and temperature not given (as in Zhang et al., 2012, 2017); EMSA on 6% polyacrylamide gel; footprinting with 0, 6, 9, 12 pmol His-OpaR
T1 sequence: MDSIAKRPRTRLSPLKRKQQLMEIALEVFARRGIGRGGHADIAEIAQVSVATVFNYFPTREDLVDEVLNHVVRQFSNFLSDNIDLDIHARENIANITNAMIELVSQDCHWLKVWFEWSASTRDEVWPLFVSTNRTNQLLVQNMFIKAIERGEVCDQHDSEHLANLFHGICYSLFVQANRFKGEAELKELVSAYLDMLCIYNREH

| Sequence | binding |
| --- | --- |
| GCTTTTCTAGGCACAAAATGACTTTAGAATGGATTAATGCGAAAGCAATTAAAAAAGTGTGAGTAACGGCTGCAAACTATTGATTTCAATGTCAGGTAACGTACGTGTTCTTGAATGATTAATGACATTTTTATTCATATCATTAAACCAACATGCGGCAAAACCCGCTAACTTTGCACCATATACATCCGTCGTGAGGTGGTCACCAACATGCAAAATGTTTTCGGCAGGTAAATCGAGGAACTGCT (double strand) [VP2979 footprint probe] | binds |
| AGACAATCACACCGATAGCCAGTAAGAAAATCATCACAAAAGGGATGAGTACAGCAGTACGTAGTGTAATTTGAGTCTTTGCAGTAGACATTGCCTAGTCACATTAGGGATGGTTCACCTTAATTGTACTGACATTTCTGTTAATATCGAGCGCTAAGCACTCTCATTGTTAACTCACTGCTTAAGTGACGGTCAGTACAACTCTTTTAACTTTCTGGTTAGCGTATTGCGTCCCCAGCCTAATACTTTAGCGGCATCTTGCTTGTGACCTTTAGTGTG (double strand) [VP0117 footprint probe] | binds |
| CCATTAAGTGACTTTAGTTCCACTTTTTTAGCTTATTTGATGACATAAGCAACAGTTTCGCCTCCAACCAATAAACAACTGAATACATATTAAAATATTCATTAAATTGACTATTTTTATGATAAACGCTTAATAATAGTTTTATCTATAAACAAACAGTGAGCTTTGTTATAAATTCATTAAAAATTTAACTTTGTATTAATTAGAAAATTCAGCGTCATATTTGTTCAACTGCGA (double strand) [scrA footprint probe] | binds |
| CTTACCTTGGCGTACCTCTTGCCAATCCGTACTTTCAAATAAATCGCCTTGTCCTTGCATCCCGTTGCCTATTTAAACCATAAAAATTTCAGATAATTATTACCTTTGCAAAGGCTATTGGTTATTCTTGTAGATAATAAGAATTTTAACAATAAAAGAATAATTCTCGTAGTAACGGACGAGCTAGTGGGGAGCTAATGCGTTATTCACCCAGAAAGCAGT (double strand) [VPA0198 footprint probe] | binds |
| GCCATATTCCAAACTCGTTGTGCCTGCCTTTTCAAGAACTGCTGGATAACGGTTACATCAAACCGAACTCAGAATTGAAACAAGCATTTAGCGAACTGTCGCTATATAATGACAATTCAATCATTTTCAGCTGTGGCTCAGGTGTGACTGCCTGTATTTTATTGTTGGCAGCTCATCAACTTGGCTTACGCA (double strand) [VPA1176 footprint probe] | binds |
| CCACTCCTCTTACAAGAATGAGGACGACATCAAGAAAATATTAAAAAATGGATAATTAACCATCGGTTAAGCGTAATAACTAATGACGCTATAAAGTTTTTTGTTATTATCAGTTAATTGTCAGTAGTACATGGACTTAACCGTAGTCGTTTCATGGGAATCTTGGAATCCGATATT (double strand) [VP0699 footprint probe] | binds |
